For series [1], the target named is PCV2 Rep WT (catalytically inactive) (Porcine circovirus 2 (PCV2)) (UniProt Q8BB16). Description: fluorescence polarization. The note with it: 50 mM NaCl, 50 mM HEPES pH 8.0, 0.05% Tween-20, 1 mM DTT, 5 uM MnCl2 (SI legend: 50 uM Mn2+) or EDTA; 10 nM FAM substrate, protein from 1 uM in 1:2 dilutions …. Background: In fluorescence polarisation assays a small probe gives low polarisation when free and higher when bound to something large.

Series [2] shares this target. Put plainly: fluorescence polarization. The note with it: 50 mM NaCl, 50 mM HEPES pH 8.0, 0.05% Tween-20, 1 mM DTT, 5 uM MnCl2 (SI legend: 50 uM Mn2+) or EDTA; 10 nM FAM substrate, protein from 1 uM in 1:2 dilutions …. This is another data set of the same source.

These results are taken from article PMC13231165.

Chain of UniProt Q8BB16 (Q8BB16 whole entry): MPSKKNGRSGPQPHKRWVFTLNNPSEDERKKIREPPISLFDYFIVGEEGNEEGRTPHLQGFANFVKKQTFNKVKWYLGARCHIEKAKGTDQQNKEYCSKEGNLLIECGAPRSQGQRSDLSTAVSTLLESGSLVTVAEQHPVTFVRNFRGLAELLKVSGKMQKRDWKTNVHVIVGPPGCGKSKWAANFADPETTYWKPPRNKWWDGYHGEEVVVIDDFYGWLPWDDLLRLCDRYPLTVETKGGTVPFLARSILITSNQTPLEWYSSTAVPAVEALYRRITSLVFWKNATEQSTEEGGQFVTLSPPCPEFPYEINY

Broadly, the Kd is the constant that tells how readily two partners part at equilibrium. A high value points to a looser complex. As to CGTAAATATTACCGTC [HUHDNA_FAM], the Kd in series [1] was determined as 30 nM; in series [2], 6 nM.
On the same counts, the results for CGUAAAAUAUUACCGUC [HUHRNA_FAM] are 100 nM and 90 nM.
